Laboratory results as given in patent publication US20210380975A1.

Key:
[1] = target: AKAP 150 (rat A-kinase anchor protein) (rat) (UniProt P24587); experiment: cell-based or functional assay
[2] = target: IL-6 (human, in degenerative IVD conditioned media) (human) (UniProt P05231); experiment: cell-based or functional assay
Chain of UniProt P05231 (P05231 30-212 limits assumed): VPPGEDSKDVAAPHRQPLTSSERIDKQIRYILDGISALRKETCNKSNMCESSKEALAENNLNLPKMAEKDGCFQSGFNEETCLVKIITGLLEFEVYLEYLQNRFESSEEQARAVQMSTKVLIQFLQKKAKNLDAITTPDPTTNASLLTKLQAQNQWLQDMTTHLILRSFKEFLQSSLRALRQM

Chain of UniProt P24587 (P24587 whole entry): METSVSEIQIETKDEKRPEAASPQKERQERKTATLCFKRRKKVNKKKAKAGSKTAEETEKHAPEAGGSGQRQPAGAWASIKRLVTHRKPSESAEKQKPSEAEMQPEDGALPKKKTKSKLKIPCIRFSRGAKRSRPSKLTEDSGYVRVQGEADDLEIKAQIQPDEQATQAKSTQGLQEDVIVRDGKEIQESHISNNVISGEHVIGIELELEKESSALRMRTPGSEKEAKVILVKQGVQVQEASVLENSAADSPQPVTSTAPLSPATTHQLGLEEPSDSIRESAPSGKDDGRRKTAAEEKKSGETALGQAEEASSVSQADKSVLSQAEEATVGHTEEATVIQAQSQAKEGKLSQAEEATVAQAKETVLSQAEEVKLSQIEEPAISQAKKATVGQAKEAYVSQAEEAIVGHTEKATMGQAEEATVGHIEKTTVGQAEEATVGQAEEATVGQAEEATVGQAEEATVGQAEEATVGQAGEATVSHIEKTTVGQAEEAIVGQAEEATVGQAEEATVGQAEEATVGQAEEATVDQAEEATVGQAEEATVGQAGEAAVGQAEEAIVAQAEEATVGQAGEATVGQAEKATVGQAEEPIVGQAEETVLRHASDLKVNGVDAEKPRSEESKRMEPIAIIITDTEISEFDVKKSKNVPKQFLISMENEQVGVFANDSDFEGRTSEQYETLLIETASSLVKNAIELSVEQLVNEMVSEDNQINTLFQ

Substance | percentage of rat DRG neurons firing at 39° C. in degenerative IVD conditioned media [1] | maximum firing response of DRG neurons (Boltzmann fit) [2]
Control peptide St-Ht31P (Promega) | 61.9% | –
Mouse isotype control antibody (Life Technologies) | – | 66%
AKAP inhibitor peptide St-Ht31 (Promega) | 15.5% | –
